In assay [1] the target is T1, monkey TIM-3 extracellular domain protein with hFc tag (cTIM-3-hFc) (monkey).
T1 construct: not shown: human IgG Fc fragment (hFc) of the pCpC vector
T1 chain: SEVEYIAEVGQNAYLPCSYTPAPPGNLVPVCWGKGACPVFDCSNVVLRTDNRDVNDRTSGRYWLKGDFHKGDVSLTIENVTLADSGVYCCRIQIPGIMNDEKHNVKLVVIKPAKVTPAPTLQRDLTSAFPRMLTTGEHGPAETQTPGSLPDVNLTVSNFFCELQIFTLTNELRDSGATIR
Description: ELISA, coated monkey TIM-3 ECD protein, 0.0667 nM antibody.

Assay [2] addresses T2, monkey TIM-3 on CHOK1 stable cell line (CHOK1-cTIM-3) (monkey).
T2 chain: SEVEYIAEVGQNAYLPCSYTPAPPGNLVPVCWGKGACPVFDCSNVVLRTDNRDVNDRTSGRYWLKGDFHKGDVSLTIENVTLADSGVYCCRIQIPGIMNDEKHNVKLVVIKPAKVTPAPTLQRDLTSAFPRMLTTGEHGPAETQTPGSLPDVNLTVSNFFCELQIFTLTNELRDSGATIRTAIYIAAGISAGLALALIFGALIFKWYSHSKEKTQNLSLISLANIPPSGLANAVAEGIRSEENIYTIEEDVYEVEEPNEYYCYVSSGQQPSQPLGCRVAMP
Description: FACS, CHOK1-cTIM-3 cells, 0.32 nM antibody.

Assay [3] addresses T1, monkey TIM-3 extracellular domain …. Description: ELISA, coated monkey TIM-3 ECD protein, 0.0001 nM antibody.
For assay [4], the target named is T3, human TIM-3 extracellular domain protein with hFc tag (hTIM-3-hFc) (human, UniProt Q8TDQ0 22-200).
T3 construct: not shown: human IgG Fc fragment (hFc) of the pCpC vector
T3 sequence: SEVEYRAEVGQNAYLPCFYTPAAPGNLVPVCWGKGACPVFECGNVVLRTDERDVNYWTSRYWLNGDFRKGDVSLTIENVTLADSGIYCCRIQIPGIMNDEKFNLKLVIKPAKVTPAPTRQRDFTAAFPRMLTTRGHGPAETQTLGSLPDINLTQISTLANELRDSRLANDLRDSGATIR
Description: ELISA, coated human TIM-3 ECD protein, 0.0001 nM antibody.

The target in assay [5] is T2, monkey TIM-3 on CHOK1 stable cell line …. The experiment in a line: FACS, CHOK1-cTIM-3 cells, 0.064 nM antibody.

B1: 215A8F2 fully human TIM-3 antibody (human IgG4, kappa) (antibody, V domains shown)
VH: QVQLQQWGAGLLKPSETLSLTCTVYGGSFSGYYWNWIRQPPGKGLEWLGEINHSGSTNYNPSLKRRVTISVDTSKNQFSLKLSSVTAADTAVYYCARVYYYGPFDFWGQGTLVTVSS
VL: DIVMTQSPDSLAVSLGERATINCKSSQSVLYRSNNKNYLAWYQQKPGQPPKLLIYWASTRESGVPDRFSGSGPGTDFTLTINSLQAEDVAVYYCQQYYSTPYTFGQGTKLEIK
In the case of B1, the figures for the OD450 in assay [1], in assay [3] and in assay [4] were 1.37, 0.13 and 0.08, respectively. Besides, the Mean fluorescence intensity in assay [2] worked out at 92.5; in assay [5], 29.9.

B2: 34B6D8 fully human TIM-3 antibody (human IgG4, kappa) (antibody, V domains shown)
VH: EVQLVESGGGLVQPGGSLRLSCAASGFTFSTYWMTWVRQAPGKRLEWVANIKQGGGDKYYVDSVKGRFTISTDNAKNSLYLQMNSLRAEDTAVYYCARGSNWFDPWGQGTLVTVSS
VL: EIVMTQSPATLSMSPGERATLSCRASQSVYDNLAWYQQKPGQAPRLLIYGASTRATGIPARFSGSGSGTEFTLTISSLQSEDFALYYCQQYTHWPITFGQGTRLEIK
Turning to B2, the OD450 in assay [1] is 1.71; in assay [3], 0.17; in assay [4], 0.09. Also, the Mean fluorescence intensity in assay [2] amounted to 109; in assay [5] it was 35.4.

B3: 39E5H1 fully human TIM-3 antibody (human IgG4, kappa) (antibody, V domains shown)
VH: EVQLVESGGGLVQPGGSLRLSCAASGFTFSSYWMSWVRQAPGKGLEWVANIKRGGSERYYVDSVKGRFTISGDNAKNSVYLQMNSLRAEDTAVYYCARGSNWFDPWGQGTLVTVSS
VL: ETVMTQSPAILSVSPGERATLSCRASQSVYSNLAWYQQKLGQAPRLLIYDASTRATGIPARFSGSGSGTEFTLTISSLQSEDFAVYYCQQYNNWPITFGQGTRLEIK
On to B3, for which the values for the OD450 in assay [1], in assay [3] and in assay [4] were 1.37, 0.17 and 0.08, respectively. The Mean fluorescence intensity in assay [2] is 132; in assay [5] it was 42.3.

B4: 134H3G6 fully human TIM-3 antibody (human IgG4, kappa) (antibody, V domains shown)
VH: EVQLVESGGGLVQPGGSLRLSCAASGFTFSNSWMTWVRQAPGKGLEWVANIKQAGTEKYYVDSVKGRFTISRDNAKNSLYLQMNSLRAEDTAVYYCNSGSNYFDYWGQGTLVTVSS
VL: EIVMTQSPATLSVSPGERATLSCRARQNFYSNLAWYQQKPGQAPRLLIYGASTRATGIPARFSGSGSGTEFTLTISSLQSEDFAVYYCQQYNNWPLTFGGGTKVEIK
For the molecule B4, the OD450 in assay [1] worked out at 1.3; in assay [3], 0.14; in assay [4], 0.1. Moreover, the Mean fluorescence intensity was determined as 134 in assay [2] and 46.4 in assay [5].

B5: 18D2H2 fully human TIM-3 antibody (human IgG4, kappa) (antibody, V domains shown)
VH: EVQLVESGGDLVQPGGSLRLSCAASGFTFSTYWMTWVRQAPGRGLEWVANIKQDGSAKYYVDSVKGRFTLSRDDAKNSLYLQMNSLRAEDTAVYYCARGSNWFDYWGQGTLVTVSS
VL: ETVMTQSPATLSVSPGERATLSCRANQNVYSNLAWYQQKPGQAPRLLIYDASTRATGFPARFSGSGSGTEFTLTISSLQSEDFAVYYCQQYNNWPLTFGGGTKVEIK
For B5, the OD450 in assay [1] stood at 1.56; in assay [3], 0.14; in assay [4] it was 0.08. The Mean fluorescence intensity was determined as 127 in assay [2] and 44 in assay [5].

B6: 7A4F10 fully human TIM-3 antibody (human IgG4, kappa) (antibody, V domains shown)
VH: EVQLLESGGGLVQPGGSLRLSCAASGFTFRTHLISWVRQAPGKGLEWVAAITGSGGSTYYADSVKGRFIISRDNSKNTLFLQMNSLRAEDTAVYYCAKDGGSGSYDDFWGQGTLVTVSS
VL: ETVLTQSPVTLSLSPGERATLSCRASQSVGSYLAWYQQKPGQAPRLLIYDASNRATGIPARFSGSGSGTDFTLTISSLEPEDFAVYYCQQRSNWPPTFGQGTKVEIK
As for B6, the values for the OD450 in assay [1], in assay [3] and in assay [4] were 0.68, 0.13 and 0.08, respectively. The Mean fluorescence intensity in assay [2] was 52.7; in assay [5] it was 17.2.

Values taken from patent US20220033501A1 (SHANGHAI PHARMAEXPLORER, published 2022).
